# Test results reported in the supplement of paper PMC9112550, “Optimization of the antimicrobial peptide Bac7 by deep mutational scanning” (BMC Biology, 2022).
# Tested on: Escherichia coli TOP10
# Test: shrunken log2 fold change of peptide-encoding DNA abundance (4.5 h post-induction vs induction); higher = less antimicrobial activity (less host growth inhibition)
# Conditions: time post-induction: 4.5 h; library: site-saturation at positions 5, 18, 19, 20
# 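Note: peptides expressed intracellularly from a pBAD plasmid library in pooled LB shake-flask culture, induced with 0.3% L-arabinose, DNA abundance read by NGS, three biological replicates, DESeq2 with apeglm shrinkage.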
row,Sequence,shrunken log2 fold change
1,RRIRERPPRLPRPRPRPASDPRP,-0.105
2,RRIRKRPPRLPRPRPRPMAFPRP,0.25
3,RRIRTRPPRLPRPRPRPIVYPRP,-0.85
4,RRIRLRPPRLPRPRPRPNHYPRP,-0.505
5,RRIRERPPRLPRPRPRPGVIPRP,-0.0985
6,RRIRERPPRLPRPRPRPSYQPRP,-0.469
7,RRIRQRPPRLPRPRPRPPYYPRP,-0.829
8,RRIRWRPPRLPRPRPRPCGTPRP,0.481
9,RRIRYRPPRLPRPRPRPDYQPRP,0.0202
10,RRIRSRPPRLPRPRPRPLSEPRP,-0.48
11,RRIRWRPPRLPRPRPRPLQYPRP,-0.133
12,RRIRSRPPRLPRPRPRPVGGPRP,0.433
13,RRIRERPPRLPRPRPRPYAMPRP,-0.416
14,RRIRPRPPRLPRPRPRPSIGPRP,0.166
15,RRIRDRPPRLPRPRPRPHSNPRP,0.0359
16,RRIRLRPPRLPRPRPRPFVNPRP,-0.372
17,RRIRVRPPRLPRPRPRPVIRPRP,-0.375
18,RRIRLRPPRLPRPRPRPHIKPRP,-0.528
19,RRIRCRPPRLPRPRPRPEWRPRP,0.391
20,RRIRSRPPRLPRPRPRPNMDPRP,-0.184
21,RRIRLRPPRLPRPRPRPTWCPRP,0.107
22,RRIRDRPPRLPRPRPRPHIPPRP,2.08
23,RRIRIRPPRLPRPRPRPNHYPRP,-0.492
24,RRIRMRPPRLPRPRPRPQLWPRP,0.998
25,RRIRARPPRLPRPRPRPTIYPRP,0.0113

row,Sequence,shrunken log2 fold change
1,RRIRQRPPRLPRPRPRPQYEPRP,-0.349
2,RRIRNRPPRLPRPRPRPKCNPRP,-0.819
3,RRIRLRPPRLPRPRPRPVTTPRP,-0.216
4,RRIRYRPPRLPRPRPRPLWYPRP,-0.824
5,RRIRRRPPRLPRPRPRPRGHPRP,2.95
6,RRIRKRPPRLPRPRPRPPMRPRP,0.918
7,RRIRMRPPRLPRPRPRPQVPPRP,-0.0842
8,RRIRGRPPRLPRPRPRPVAQPRP,0.719
9,RRIRYRPPRLPRPRPRPNFPPRP,-0.313
10,RRIRNRPPRLPRPRPRPGNRPRP,-0.0775
11,RRIRDRPPRLPRPRPRPKFVPRP,0.0202
12,RRIRYRPPRLPRPRPRPSWQPRP,-0.526
13,RRIRFRPPRLPRPRPRPQCYPRP,0.04
14,RRIRWRPPRLPRPRPRPDFSPRP,-0.0269
15,RRIRIRPPRLPRPRPRPGLGPRP,0.217
16,RRIRDRPPRLPRPRPRPSREPRP,-0.0011
17,RRIRYRPPRLPRPRPRPANEPRP,0.0338
18,RRIRPRPPRLPRPRPRPAPYPRP,-0.0601
19,RRIRYRPPRLPRPRPRPPMAPRP,0.298
20,RRIRRRPPRLPRPRPRPPYFPRP,0.442
21,RRIRARPPRLPRPRPRPTMAPRP,0.6
22,RRIRLRPPRLPRPRPRPMQCPRP,-0.0717
23,RRIRARPPRLPRPRPRPCPGPRP,-0.258
24,RRIRNRPPRLPRPRPRPLLTPRP,-0.046
25,RRIRPRPPRLPRPRPRPESDPRP,0.235

row,Sequence,shrunken log2 fold change
1,RRIRMRPPRLPRPRPRPMLEPRP,0.0346
2,RRIRRRPPRLPRPRPRPHKDPRP,-0.11
3,RRIRWRPPRLPRPRPRPPIYPRP,0.0337
4,RRIRPRPPRLPRPRPRPRWYPRP,-0.0594
5,RRIRHRPPRLPRPRPRPGVVPRP,-0.227
6,RRIRTRPPRLPRPRPRPPCSPRP,-0.00786
7,RRIRTRPPRLPRPRPRPVPTPRP,3.08
8,RRIRERPPRLPRPRPRPTTKPRP,0.0648
9,RRIRWRPPRLPRPRPRPPWEPRP,0.541
10,RRIRPRPPRLPRPRPRPPDNPRP,0.246
11,RRIRYRPPRLPRPRPRPGYTPRP,0.0577
12,RRIRPRPPRLPRPRPRPESSPRP,1.89
13,RRIRFRPPRLPRPRPRPCWPPRP,0.0203
14,RRIRDRPPRLPRPRPRPPAFPRP,0.192
15,RRIRRRPPRLPRPRPRPGNDPRP,-0.0382
16,RRIRNRPPRLPRPRPRPRCPPRP,-0.0521
17,RRIRTRPPRLPRPRPRPFMDPRP,0.108
18,RRIRFRPPRLPRPRPRPYRNPRP,-0.00237
19,RRIRTRPPRLPRPRPRPNSCPRP,0.0686
20,RRIRDRPPRLPRPRPRPGPMPRP,-0.00245
21,RRIRRRPPRLPRPRPRPTQKPRP,0.788
22,RRIRIRPPRLPRPRPRPSYEPRP,-0.53
23,RRIRLRPPRLPRPRPRPEYLPRP,-0.0639
24,RRIRIRPPRLPRPRPRPGYQPRP,-0.0481
25,RRIRKRPPRLPRPRPRPPNNPRP,0.364
